This note sets out measurements from IntAct's records for PubMed 17872410.

B1: Adagio protein 3 (Arabidopsis thaliana (Mouse-ear cress)), Q9C9W9 (parent)
chain: MAREHAIGEATGKRKKRGRVEEAEEYCNDGIEEQVEDEKLPLEVGMFYYPMTPPSFIVSDALEPDFPLIYVNRVFEVFTGYRADEVLGRNCRFLQYRDPRAQRRHPLVDPVVVSEIRRCLEEGIEFQGELLNFRKDGTPLVNRLRLAPIRDDDGTITHVIGIQVFSETTIDLDRVSYPVFKHKQQLDQTSECLFPSGSPRFKEHHEDFCGILQLSDEVLAHNILSRLTPRDVASIGSACRRLRQLTKNESVRKMVCQNAWGKEITGTLEIMTKKLRWGRLARELTTLEAVCWRKFTVGGIVQPSRCNFSACAVGNRLVLFGGEGVNMQPLDDTFVLNLDAECPEWQRVRVTSSPPGRWGHTLSCLNGSWLVVFGGCGRQGLLNDVFVLDLDAKHPTWKEVAGGTPPLPRSWHSSCTIEGSKLVVSGGCTDAGVLLSDTFLLDLTTDKPTWKEIPTSWAPPSRLGHSLSVFGRTKILMFGGLANSGHLKLRSGEAYTIDLEDEEPRWRELECSAFPGVVVPPPRLDHVAVSMPCGRVIIFGGSIAGLHSPSQLFLIDPAEEKPSWRILNVPGKPPKLAWGHSTCVVGGTRVLVLGGHTGEEWILNELHELCLASRQDSDL
partner: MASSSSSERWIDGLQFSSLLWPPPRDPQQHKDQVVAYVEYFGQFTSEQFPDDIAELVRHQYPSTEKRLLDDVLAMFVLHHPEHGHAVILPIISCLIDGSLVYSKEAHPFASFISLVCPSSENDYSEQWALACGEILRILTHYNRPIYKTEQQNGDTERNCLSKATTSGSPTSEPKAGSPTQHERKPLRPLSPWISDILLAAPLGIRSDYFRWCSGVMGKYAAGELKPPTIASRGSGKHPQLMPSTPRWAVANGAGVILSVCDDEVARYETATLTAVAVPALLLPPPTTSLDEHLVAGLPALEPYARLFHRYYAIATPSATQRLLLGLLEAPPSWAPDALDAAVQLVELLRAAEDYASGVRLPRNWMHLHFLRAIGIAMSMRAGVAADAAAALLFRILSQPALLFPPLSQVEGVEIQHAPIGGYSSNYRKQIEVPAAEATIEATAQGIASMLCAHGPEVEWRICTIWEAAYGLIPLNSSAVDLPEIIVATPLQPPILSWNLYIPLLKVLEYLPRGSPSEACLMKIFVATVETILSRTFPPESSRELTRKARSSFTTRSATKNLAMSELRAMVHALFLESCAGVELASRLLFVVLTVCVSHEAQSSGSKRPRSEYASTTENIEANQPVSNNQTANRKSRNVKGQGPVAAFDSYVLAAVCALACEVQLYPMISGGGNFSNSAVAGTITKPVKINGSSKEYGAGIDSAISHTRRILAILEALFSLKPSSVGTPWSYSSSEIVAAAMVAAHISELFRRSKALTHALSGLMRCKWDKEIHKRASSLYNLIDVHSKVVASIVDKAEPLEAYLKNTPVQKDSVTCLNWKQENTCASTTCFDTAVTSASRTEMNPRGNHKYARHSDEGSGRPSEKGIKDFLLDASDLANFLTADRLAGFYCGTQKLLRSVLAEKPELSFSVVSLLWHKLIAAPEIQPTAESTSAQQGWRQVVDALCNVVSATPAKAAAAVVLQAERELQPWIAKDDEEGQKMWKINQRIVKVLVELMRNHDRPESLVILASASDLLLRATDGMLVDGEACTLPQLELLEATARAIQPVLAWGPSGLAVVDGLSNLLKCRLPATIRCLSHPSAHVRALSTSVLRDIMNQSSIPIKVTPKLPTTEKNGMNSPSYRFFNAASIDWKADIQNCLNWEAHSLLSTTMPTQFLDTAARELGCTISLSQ

In this assay the parent is B1. As to conditions: with gigan_arath GI.
Regarding R92D, the “effect of a mutation on the interaction” value was “decreasing interaction”.
In the case of Q163L it was “disrupting interaction”; in that of C91A, “decreasing interaction”.
